In patent US20260242735A1:

Experiments:
Assay in all cases: alanine scan, flow cytometry, HEK293-T
[1] = biological target: human CD33 L134A (human) (UniProt P20138)
[2] = biological target: human CD33 T152A (human) (UniProt P20138)
[3] = biological target: human CD33 S124A (human) (UniProt P20138)
[4] = biological target: human CD33 S194A (human) (UniProt P20138)
[5] = biological target: human CD33 P72A (human) (UniProt P20138)
[6] = biological target: human CD33 P189A (human) (UniProt P20138)
[7] = biological target: human CD33 Y50A (human) (UniProt P20138)
[8] = biological target: human CD33 R109A (human) (UniProt P20138)
[9] = biological target: human CD33 S131A (human) (UniProt P20138)
Sequence of human CD33 S131A (human) (P20138 18-364 S131A limits assumed): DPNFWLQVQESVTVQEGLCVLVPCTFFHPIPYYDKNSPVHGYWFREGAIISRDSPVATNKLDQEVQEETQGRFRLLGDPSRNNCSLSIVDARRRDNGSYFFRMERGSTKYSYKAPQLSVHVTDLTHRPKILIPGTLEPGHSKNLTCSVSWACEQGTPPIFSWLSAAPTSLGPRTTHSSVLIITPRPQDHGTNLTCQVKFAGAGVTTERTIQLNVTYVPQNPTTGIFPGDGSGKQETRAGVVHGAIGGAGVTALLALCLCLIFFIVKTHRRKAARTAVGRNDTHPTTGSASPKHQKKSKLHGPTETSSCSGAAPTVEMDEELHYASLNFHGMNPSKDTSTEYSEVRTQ

[10] = biological target: human CD33 K159A (human) (UniProt P20138)
[11] = biological target: human CD33 E63A (human) (UniProt P20138)
[12] = biological target: human CD33 E170A (human) (UniProt P20138)
Sequence of human CD33 E170A (human) (P20138 18-364 E170A limits assumed): as the sequence (P20138 18-364 S131A limits assumed) above, with A114S, E153A counted along it

[13] = biological target: human CD33 T86A (human) (UniProt P20138)
[14] = biological target: human CD33 D70A (human) (UniProt P20138)
Sequence of human CD33 D70A (human) (P20138 18-364 D70A limits assumed): as the sequence (P20138 18-364 S131A limits assumed) above, with D53A, A114S counted along it

[15] = biological target: human CD33 Y49A (human) (UniProt P20138)
[16] = biological target: human CD33 R119A (human) (UniProt P20138)
[17] = biological target: human CD33 C163A (human) (UniProt P20138)
[18] = biological target: human CD33 D140A (human) (UniProt P20138)
[19] = biological target: human CD33 Y59A (human) (UniProt P20138)
[20] = biological target: human CD33 T142A (human) (UniProt P20138)
[21] = biological target: human CD33 S158A (human) (UniProt P20138)
Sequence of human CD33 S158A (human) (P20138 18-364 S158A limits assumed): as the sequence (P20138 18-364 S131A limits assumed) above, with A114S, S141A counted along it

[22] = biological target: human CD33 D79A (human) (UniProt P20138)
Sequence of human CD33 D79A (human) (P20138 18-364 D79A limits assumed): as the sequence (P20138 18-364 S131A limits assumed) above, with D62A, A114S counted along it

[23] = biological target: human CD33 Q83A (human) (UniProt P20138)
[24] = biological target: human CD33 G156A (human) (UniProt P20138)
Sequence of human CD33 G156A (human) (P20138 18-364 G156A limits assumed): as the sequence (P20138 18-364 S131A limits assumed) above, with A114S, G139A counted along it

[25] = biological target: human CD33 L92A (human) (UniProt P20138)
Sequence of human CD33 L92A (human) (P20138 18-364 L92A limits assumed): as the sequence (P20138 18-364 S131A limits assumed) above, with L75A, A114S counted along it

[26] = biological target: human CD33 E84A (human) (UniProt P20138)
[27] = biological target: human CD33 G123A (human) (UniProt P20138)
Sequence of human CD33 G123A (human) (P20138 18-364 G123A limits assumed): as the sequence (P20138 18-364 S131A limits assumed) above, with G106A, A114S counted along it

[28] = biological target: human CD33 S135A (human) (UniProt P20138)
[29] = biological target: human CD33 D107A (human) (UniProt P20138)
[30] = biological target: human CD33 G88A (human) (UniProt P20138)
[31] = biological target: human CD33 A182S (human) (UniProt P20138)
[32] = biological target: human CD33 V82A (human) (UniProt P20138)
[33] = biological target: human CD33 I67A (human) (UniProt P20138)
Sequence of human CD33 I67A (human) (P20138 18-364 I67A limits assumed): as the sequence (P20138 18-364 S131A limits assumed) above, with I50A, A114S counted along it

[34] = biological target: human CD33 P150A (human) (UniProt P20138)
[35] = biological target: human CD33 F118A (human) (UniProt P20138)
[36] = biological target: human CD33 I66A (human) (UniProt P20138)
[37] = biological target: human CD33 G172A (human) (UniProt P20138)
Sequence of human CD33 G172A (human) (P20138 18-364 G172A limits assumed): as the sequence (P20138 18-364 S131A limits assumed) above, with A114S, G155A counted along it

[38] = biological target: human CD33 H137A (human) (UniProt P20138)
Sequence of human CD33 H137A (human) (P20138 18-364 H137A limits assumed): as the sequence (P20138 18-364 S131A limits assumed) above, with A114S, H120A counted along it

[39] = biological target: human CD33 P46A (human) (UniProt P20138)
[40] = biological target: human CD33 N113A (human) (UniProt P20138)
[41] = biological target: human CD33 E121A (human) (UniProt P20138)
Sequence of human CD33 E121A (human) (P20138 18-364 E121A limits assumed): as the sequence (P20138 18-364 S131A limits assumed) above, with E104A, A114S counted along it

[42] = biological target: human CD33 W167A (human) (UniProt P20138)
[43] = biological target: human CD33 P174A (human) (UniProt P20138)
[44] = biological target: human CD33 K52A (human) (UniProt P20138)
[45] = biological target: human CD33 P48A (human) (UniProt P20138)

Sequence of human CD33 L134A (human) (P20138 18-364 L134A limits assumed): as the sequence (P20138 18-364 S131A limits assumed) above, with A114S, L117A counted along it
Sequence of human CD33 S194A (human) (P20138 18-364 S194A limits assumed): as the sequence (P20138 18-364 S131A limits assumed) above, with A114S, S177A counted along it

Work on Refmab #7 (WM53) (antibody) yielded a Mean % WT Binding [1] of 96.6 % WT binding, a Mean % WT Binding [2] of 102 % WT binding and a Mean % WT Binding [3] of 81.8 % WT binding. For the same substance, the Mean % WT Binding [4] was 112 % WT binding, the Mean % WT Binding [5] was 114 % WT binding and the Mean % WT Binding [6] was 119 % WT binding. For the same substance, the Mean % WT Binding [7] was 1 % WT binding, the Mean % WT Binding [8] was 127 % WT binding and the Mean % WT Binding [9] was 114 % WT binding. The Mean % WT Binding [10] was 110 % WT binding, the Mean % WT Binding [11] was 93 % WT binding and the Mean % WT Binding [12] was 118 % WT binding. For the same substance, the Mean % WT Binding [13] was 111 % WT binding, the Mean % WT Binding [14] was 81.2 % WT binding and the Mean % WT Binding [15] was 13.7 % WT binding. It also gave a Mean % WT Binding [16] of 116 % WT binding, a Mean % WT Binding [17] of 102 % WT binding and a Mean % WT Binding [18] of 116 % WT binding. The Mean % WT Binding [19] was 127 % WT binding, the Mean % WT Binding [20] was 113 % WT binding and the Mean % WT Binding [21] was 113 % WT binding. For the same substance, the Mean % WT Binding [22] was 83.5 % WT binding, the Mean % WT Binding [23] was 120 % WT binding and the Mean % WT Binding [24] was 112 % WT binding. The Mean % WT Binding [25] was 89.9 % WT binding, the Mean % WT Binding [26] was 109 % WT binding and the Mean % WT Binding [27] was 76 % WT binding. For the same substance, the Mean % WT Binding [28] was 101 % WT binding, the Mean % WT Binding [29] was 113 % WT binding and the Mean % WT Binding [30] was 115 % WT binding. The Mean % WT Binding [31] was 114 % WT binding, the Mean % WT Binding [32] was 108 % WT binding and the Mean % WT Binding [33] was 135 % WT binding. For the same substance, the Mean % WT Binding [34] was 115 % WT binding, the Mean % WT Binding [35] was 3.2 % WT binding and the Mean % WT Binding [36] was 117 % WT binding. The Mean % WT Binding [37] was 92.1 % WT binding, the Mean % WT Binding [38] was 114 % WT binding and the Mean % WT Binding [39] was 75.3 % WT binding. The Mean % WT Binding [40] was 80 % WT binding, the Mean % WT Binding [41] was 94.4 % WT binding and the Mean % WT Binding [42] was 127 % WT binding. For the same substance, the Mean % WT Binding [43] was 122 % WT binding, the Mean % WT Binding [44] was 76.8 % WT binding and the Mean % WT Binding [45] was 42.5 % WT binding.
